Results on 19 molecules are retold here after patent publication US20130012432A1 (Novo Nordisk, published 2013).

Positions of bridges follow the written chain, without caps; N, C: chain ends. Non-standard residues stand in square brackets, D forms with d. Groups on a side chain read outwards from the residue. Primed or numbered codes have the meaning given here. *: point of attachment. X5 = NH(2-(2-(2-(17-carboxyheptadecanoylamino)ethoxy)ethoxy)ethyl), O=C(O)CCCCCCCCCCCCCCCCC(=O)NCCOCCOCCN*; X6 = (2-(2-(17-carboxyheptadecanoylamino)ethoxy)ethoxy)acetyl, O=C(O)CCCCCCCCCCCCCCCCC(=O)NCCOCCOCC(=O)*; X3 = (2-(2-(15-carboxypentadecanoylamino)ethoxy)ethoxy)acetyl, O=C(O)CCCCCCCCCCCCCCC(=O)NCCOCCOCC(=O)*; X4 = (2-(2-(16-carboxyhexadecanoylamino)ethoxy)ethoxy)acetyl, O=C(O)CCCCCCCCCCCCCCCC(=O)NCCOCCOCC(=O)*; biscarboxymethyl = Lys(biscarboxymethyl) = Nepsilon-bis(carboxymethyl)-L-lysine; Palmitoyl(16-(5-tetrazolyl)) = O=C(CCCCCCCCCCCCCCCc1nnn[nH]1)*; biscarboxymethyl(3) = Nepsilon-bis(carboxymethyl) on Lys; Lys(CH2CO2H)2 = N[C@@H](CCCCN(CC(=O)O)CC(=O)O)C(=O)O; C17 diacid = O=C(O)CCCCCCCCCCCCCCCC(=O)*; Hyp = O=C(O)[C@@H]1C[C@@H](O)CN1; Orn = NCCC[C@H](N)C(=O)O; Dab = NCC[C@H](N)C(=O)O; Dap = NC[C@H](N)C(=O)O; AEEA = NCCOCCOCC(=O)O

B1: Ac-c[Lys-His-D-Phe-Arg-Trp-Asp]-Pro-Ser-His-Glu-Lys(biscarboxymethyl)-Lys({2-[2-(16-carboxyhexadecanoylamino)ethoxy]ethoxy}acetyl)-NH2 (peptide)
peptide: Ac-KH[dF]RWDPSHE[Lys(CH2CO2H)2]K([AEEA-C17 diacid])-NH2
modifications: lactam 1-6
SMILES: CC(=O)N[C@H]1CCCCNC(=O)C[C@@H](C(=O)N2CCC[C@H]2C(=O)N[C@@H](CO)C(=O)N[C@@H](Cc2c[nH]cn2)C(=O)N[C@@H](CCC(=O)O)C(=O)N[C@@H](CCCCN(CC(=O)O)CC(=O)O)C(=O)N[C@@H](CCCCNC(=O)COCCOCCNC(=O)CCCCCCCCCCCCCCCC(=O)O)C(N)=O)NC(=O)[C@H](Cc2c[nH]c3ccccc23)NC(=O)[C@H](CCCNC(=N)N)NC(=O)[C@@H](Cc2ccccc2)NC(=O)[C@H](Cc2c[nH]cn2)NC1=O
B2: Ac-c[Lys-His-D-Phe-Arg-Trp-Glu]-Pro-Pro-His-Glu-Lys(biscarboxymethyl)-Lys({2-[2-(16-carboxyhexadecanoylamino)ethoxy]ethoxy}acetyl)-NH2 (peptide)
peptide: Ac-KH[dF]RWEPPHE[Lys(CH2CO2H)2]K([AEEA-C17 diacid])-NH2
modifications: lactam 1-6
SMILES: CC(=O)N[C@H]1CCCCNC(=O)CC[C@@H](C(=O)N2CCC[C@H]2C(=O)N2CCC[C@H]2C(=O)N[C@@H](Cc2c[nH]cn2)C(=O)N[C@@H](CCC(=O)O)C(=O)N[C@@H](CCCCN(CC(=O)O)CC(=O)O)C(=O)N[C@@H](CCCCNC(=O)COCCOCCNC(=O)CCCCCCCCCCCCCCCC(=O)O)C(N)=O)NC(=O)[C@H](Cc2c[nH]c3ccccc23)NC(=O)[C@H](CCCNC(=N)N)NC(=O)[C@@H](Cc2ccccc2)NC(=O)[C@H](Cc2c[nH]cn2)NC1=O
B3: Ac-c[Glu-His-D-Phe-Arg-Trp-Lys]-Hyp-Hyp-Arg-Asp-Lys(biscarboxymethyl)-Lys[(2-{2-[16-(tetrazol-5-yl)hexadecanoylamino]ethoxy}ethoxy)acetyl]-NH2 (peptide)
peptide: Ac-EH[dF]RWK[Hyp][Hyp]RD[Lys(CH2CO2H)2]K([AEEA-Palmitoyl(16-(5-tetrazolyl))])-NH2
modifications: lactam 1-6
SMILES: CC(=O)N[C@H]1CCC(=O)NCCCC[C@@H](C(=O)N2C[C@H](O)C[C@H]2C(=O)N2C[C@H](O)C[C@H]2C(=O)N[C@@H](CCCNC(=N)N)C(=O)N[C@@H](CC(=O)O)C(=O)N[C@@H](CCCCN(CC(=O)O)CC(=O)O)C(=O)N[C@@H](CCCCNC(=O)COCCOCCNC(=O)CCCCCCCCCCCCCCCc2nnn[nH]2)C(N)=O)NC(=O)[C@H](Cc2c[nH]c3ccccc23)NC(=O)[C@H](CCCNC(=N)N)NC(=O)[C@@H](Cc2ccccc2)NC(=O)[C@H](Cc2c[nH]cn2)NC1=O
B4: Ac-c[Orn-Glu-His-D-Phe-Arg-Trp-Gly-Asp]-Pro-Ser-Lys-Glu-Glu-Ser-Ser-Lys({2-[2-(16-carboxyhexadecanoylamino)ethoxy]ethoxy}acetyl)-NH2 (peptide)
peptide: Ac-[Orn]EH[dF]RWGDPSKEESSK(X4)-NH2
modifications: lactam 1-8
SMILES: CC(=O)N[C@H]1CCCNC(=O)C[C@@H](C(=O)N2CCC[C@H]2C(=O)N[C@@H](CO)C(=O)N[C@@H](CCCCN)C(=O)N[C@@H](CCC(=O)O)C(=O)N[C@@H](CCC(=O)O)C(=O)N[C@@H](CO)C(=O)N[C@@H](CO)C(=O)N[C@@H](CCCCNC(=O)COCCOCCNC(=O)CCCCCCCCCCCCCCCC(=O)O)C(N)=O)NC(=O)CNC(=O)[C@H](Cc2c[nH]c3ccccc23)NC(=O)[C@H](CCCNC(=N)N)NC(=O)[C@@H](Cc2ccccc2)NC(=O)[C@H](Cc2c[nH]cn2)NC(=O)[C@H](CCC(=O)O)NC1=O
B5: Ac-c[Glu-His-D-Phe-Arg-Trp-Lys]-Pro-Pro-Arg-Asp-Lys(biscarboxymethyl)-Lys[(2-{2-[16-(tetrazol-5-yl)hexadecanoylamino]ethoxy}ethoxy)acetyl]-NH2 (peptide)
peptide: Ac-EH[dF]RWKPPRD[Lys(CH2CO2H)2]K([AEEA-Palmitoyl(16-(5-tetrazolyl))])-NH2
modifications: lactam 1-6
SMILES: CC(=O)N[C@H]1CCC(=O)NCCCC[C@@H](C(=O)N2CCC[C@H]2C(=O)N2CCC[C@H]2C(=O)N[C@@H](CCCNC(=N)N)C(=O)N[C@@H](CC(=O)O)C(=O)N[C@@H](CCCCN(CC(=O)O)CC(=O)O)C(=O)N[C@@H](CCCCNC(=O)COCCOCCNC(=O)CCCCCCCCCCCCCCCc2nnn[nH]2)C(N)=O)NC(=O)[C@H](Cc2c[nH]c3ccccc23)NC(=O)[C@H](CCCNC(=N)N)NC(=O)[C@@H](Cc2ccccc2)NC(=O)[C@H](Cc2c[nH]cn2)NC1=O
B6: Ac-c[Orn-His-D-Phe-Arg-Trp-Glu]-Pro-Ser-Ser-Ser-Glu-Glu-Ser-Ser-Lys({2-[2-(16-carboxyhexadecanoylamino)ethoxy]ethoxy}acetyl)-NH2 (peptide)
peptide: Ac-[Orn]H[dF]RWEPSSSEESSK([AEEA-C17 diacid])-NH2
modifications: lactam 1-6
SMILES: CC(=O)N[C@H]1CCCNC(=O)CC[C@@H](C(=O)N2CCC[C@H]2C(=O)N[C@@H](CO)C(=O)N[C@@H](CO)C(=O)N[C@@H](CO)C(=O)N[C@@H](CCC(=O)O)C(=O)N[C@@H](CCC(=O)O)C(=O)N[C@@H](CO)C(=O)N[C@@H](CO)C(=O)N[C@@H](CCCCNC(=O)COCCOCCNC(=O)CCCCCCCCCCCCCCCC(=O)O)C(N)=O)NC(=O)[C@H](Cc2c[nH]c3ccccc23)NC(=O)[C@H](CCCNC(=N)N)NC(=O)[C@@H](Cc2ccccc2)NC(=O)[C@H](Cc2c[nH]cn2)NC1=O
B7: Ac-c[Lys-His-D-Phe-Arg-Trp-Asp]-Pro-Pro-His-Ser-Lys(biscarboxymethyl)-Ser-Ser-Glu-Lys({2-[2-(16-carboxyhexadecanoylamino)ethoxy]ethoxy}acetyl)-NH2 (peptide)
peptide: Ac-KH[dF]RWDPPHS[Lys(CH2CO2H)2]SSEK([AEEA-C17 diacid])-NH2
modifications: lactam 1-6
SMILES: CC(=O)N[C@H]1CCCCNC(=O)C[C@@H](C(=O)N2CCC[C@H]2C(=O)N2CCC[C@H]2C(=O)N[C@@H](Cc2c[nH]cn2)C(=O)N[C@@H](CO)C(=O)N[C@@H](CCCCN(CC(=O)O)CC(=O)O)C(=O)N[C@@H](CO)C(=O)N[C@@H](CO)C(=O)N[C@@H](CCC(=O)O)C(=O)N[C@@H](CCCCNC(=O)COCCOCCNC(=O)CCCCCCCCCCCCCCCC(=O)O)C(N)=O)NC(=O)[C@H](Cc2c[nH]c3ccccc23)NC(=O)[C@H](CCCNC(=N)N)NC(=O)[C@@H](Cc2ccccc2)NC(=O)[C@H](Cc2c[nH]cn2)NC1=O
B8: Ac-c[Lys-His-D-Phe-Arg-Trp-Asp]-Pro-Pro-Arg-Asp-Lys(biscarboxymethyl)-Lys[(2-{2-[16-(tetrazol-5-yl)hexadecanoylamino]ethoxy}ethoxy)acetyl]-NH2 (peptide)
peptide: Ac-KH[dF]RWDPPRD[Lys(CH2CO2H)2]K([AEEA-Palmitoyl(16-(5-tetrazolyl))])-NH2
modifications: lactam 1-6
SMILES: CC(=O)N[C@H]1CCCCNC(=O)C[C@@H](C(=O)N2CCC[C@H]2C(=O)N2CCC[C@H]2C(=O)N[C@@H](CCCNC(=N)N)C(=O)N[C@@H](CC(=O)O)C(=O)N[C@@H](CCCCN(CC(=O)O)CC(=O)O)C(=O)N[C@@H](CCCCNC(=O)COCCOCCNC(=O)CCCCCCCCCCCCCCCc2nnn[nH]2)C(N)=O)NC(=O)[C@H](Cc2c[nH]c3ccccc23)NC(=O)[C@H](CCCNC(=N)N)NC(=O)[C@@H](Cc2ccccc2)NC(=O)[C@H](Cc2c[nH]cn2)NC1=O
B9: Ac-c[Lys-His-D-Phe-Arg-Trp-Glu]-Pro-Pro-Arg-Asp-Lys(biscarboxymethyl)-Lys[(2-{2-[16-(tetrazol-5-yl)hexadecanoylamino]ethoxy}ethoxy)acetyl]-NH2 (peptide)
peptide: Ac-KH[dF]RWEPPRD[Lys(CH2CO2H)2]K([AEEA-Palmitoyl(16-(5-tetrazolyl))])-NH2
modifications: lactam 1-6
SMILES: CC(=O)N[C@H]1CCCCNC(=O)CC[C@@H](C(=O)N2CCC[C@H]2C(=O)N2CCC[C@H]2C(=O)N[C@@H](CCCNC(=N)N)C(=O)N[C@@H](CC(=O)O)C(=O)N[C@@H](CCCCN(CC(=O)O)CC(=O)O)C(=O)N[C@@H](CCCCNC(=O)COCCOCCNC(=O)CCCCCCCCCCCCCCCc2nnn[nH]2)C(N)=O)NC(=O)[C@H](Cc2c[nH]c3ccccc23)NC(=O)[C@H](CCCNC(=N)N)NC(=O)[C@@H](Cc2ccccc2)NC(=O)[C@H](Cc2c[nH]cn2)NC1=O
B10: Ac-c[Orn-His-D-Phe-Arg-Trp-Glu]-Pro-Ser-Lys-Glu-Glu-Ser-Ser-Glu-Lys({2-[2-(16-carboxyhexadecanoylamino)ethoxy]ethoxy}acetyl)-NH2 (peptide)
peptide: Ac-[Orn]H[dF]RWEPSKEESSEK([AEEA-C17 diacid])-NH2
modifications: lactam 1-6
SMILES: CC(=O)N[C@H]1CCCNC(=O)CC[C@@H](C(=O)N2CCC[C@H]2C(=O)N[C@@H](CO)C(=O)N[C@@H](CCCCN)C(=O)N[C@@H](CCC(=O)O)C(=O)N[C@@H](CCC(=O)O)C(=O)N[C@@H](CO)C(=O)N[C@@H](CO)C(=O)N[C@@H](CCC(=O)O)C(=O)N[C@@H](CCCCNC(=O)COCCOCCNC(=O)CCCCCCCCCCCCCCCC(=O)O)C(N)=O)NC(=O)[C@H](Cc2c[nH]c3ccccc23)NC(=O)[C@H](CCCNC(=N)N)NC(=O)[C@@H](Cc2ccccc2)NC(=O)[C@H](Cc2c[nH]cn2)NC1=O

T1 sequence (Q01726 whole entry): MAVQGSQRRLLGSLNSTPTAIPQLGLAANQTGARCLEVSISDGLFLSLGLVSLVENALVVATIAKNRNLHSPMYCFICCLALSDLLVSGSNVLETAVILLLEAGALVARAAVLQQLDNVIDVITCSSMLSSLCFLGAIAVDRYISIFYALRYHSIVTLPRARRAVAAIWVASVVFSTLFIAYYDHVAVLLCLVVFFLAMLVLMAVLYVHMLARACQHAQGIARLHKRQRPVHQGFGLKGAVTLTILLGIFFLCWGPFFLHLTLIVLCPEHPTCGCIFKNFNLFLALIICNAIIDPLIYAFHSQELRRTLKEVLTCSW

One assay has as its target T1, MC1 receptor (UniProt Q01726 1-317, limits assumed).
T1 construct: whole, on cells; also called melanocortin receptor subtype 1; melanocortin receptor 1
Description: 125I-NDP-α-MSH displacement, BHK-MC1 membranes (Assay IV).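 Also: membrane incubations stopped by filtration, retained radioactivity counted, Ki fitted by nonlinear regression to binding curves.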
Description: The MC1 receptor binding assay was performed on BHK cell membranes stably expressing the MC1 receptor. […] Test compounds were dissolved in DMSO. […] Alternatively, HSA may be substituted with ovalbumin. The samples were incubated at 30° C. for 90 min. in Costar round-bottom microtiter plates. Incubation was terminated by filtration on a Packard harvester filtermate. […] The filters were washed with ice-cold 0.9% NaCl 8-10 times. […] The plates were counted in a Topcounter (1 min/well).
(§1) The data were analysed by non-linear regression analysis of binding curves, using the Windows™ program GraphPad™ Prism (GraphPad Software, USA).
On to Ac-[Dap]H[dF]RWDPPRDK(biscarboxymethyl(3))K([AEEA-Palmitoyl(16-(5-tetrazolyl))])-NH2 (lactam 1-6), for which affinity was put at a Ki of 1.83 µM.
As to Ac-[Dap]H[dF]RWEPPRDK(biscarboxymethyl(3))K([AEEA-Palmitoyl(16-(5-tetrazolyl))])-NH2 (lactam 1-6), the Ki (as a rule, the equilibrium dissociation constant of an inhibitor or competing ligand from its target) was 3.85 µM.
Consider Ac-[Orn]H[dF]RWDPPREK(biscarboxymethyl)SS-X5 (lactam 1-6), for which the Ki was determined as 2.5 µM.

The target in the next assay is T2, human MC4 receptor (human, UniProt P32245 1-332).
T2 construct: whole, on cells; Assayed as membranes of BHK cells stably expressing the receptor; also called melanocortin receptor subtype 4; melanocortin receptor 4
T2 sequence (P32245 whole entry): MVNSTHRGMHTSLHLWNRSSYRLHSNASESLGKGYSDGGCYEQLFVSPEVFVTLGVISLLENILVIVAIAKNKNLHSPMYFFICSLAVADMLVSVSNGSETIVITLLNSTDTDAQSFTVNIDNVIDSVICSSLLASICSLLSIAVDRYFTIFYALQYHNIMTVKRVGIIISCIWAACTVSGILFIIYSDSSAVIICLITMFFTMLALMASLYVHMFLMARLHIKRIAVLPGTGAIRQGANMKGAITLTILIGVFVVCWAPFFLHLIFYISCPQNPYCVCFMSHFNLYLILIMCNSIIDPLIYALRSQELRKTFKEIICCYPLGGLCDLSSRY
Description: 125I-NDP-α-MSH displacement, BHK-human MC4 membranes (Assay V).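 Also: Filter-retained radioactivity read by gamma counting, with affinity obtained through non-linear regression fitting of the binding curves.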
Description: The membranes were prepared from frozen or fresh cells that were homogenized in 20 mM HEPES pH 7.1, 5 mM MgCl₂ and 1 mg/ml bacitracin and centrifuged at 15000 rpm at 4° C., 10 min in a Sorvall RC 5B plus, SS-34 rotor. The supernatant was discarded, and the pellets were re-suspended in buffer, homogenized and centrifuged two more times. The final pellets were resuspended in the buffer mentioned above, and the protein concentration was measured and adjusted with buffer to 14 to 17 mg/ml and the membrane preparation were kept at −80° C. until assay. The assay was run directly on a dilution of this cell membrane suspension, without any further preparation. The BHK cell membranes are kept at −80° C. until assay, and the assay is run directly on a dilution of this cell membrane suspension, without further preparation. The suspension is diluted to give maximally 10% specific binding, i.e. to approx. 50-100 fold dilution. […] Test compounds were dissolved in DMSO and diluted in binding buffer. Radiolabelled ligand and membranes were diluted in binding buffer. The incubation was stopped by dilution with 2×100 μl ice-cold 0.9% NaCl. The radioactivity retained on the filters was counted using a Cobra II auto gamma counter.
as §1
For B1, the affinity, expressed as Ki, was 0.025 µM.
B2 had a Ki of 0.348 µM.
Consider Ac-EH[dF]RW[Dap][Hyp][Hyp]RDK(biscarboxymethyl(3))K([AEEA-Palmitoyl(16-(5-tetrazolyl))])-NH2 (lactam 1-6), for which the Ki was determined as 0.017 µM.
As for Ac-EH[dF]RW[Orn]PPDK(biscarboxymethyl)K(X6)-NH2 (lactam 1-6), the Ki came to 0.0086 µM.
The molecule Ac-EH[dF]RW[Orn]PPDK(biscarboxymethyl)K(X3)-NH2 (lactam 1-6) registered a Ki of 0.064 µM.
In turn, B3 had a Ki of 0.021 µM.
The molecule B4 came in with a Ki of 0.125 µM.
Consider B5, for which the Ki was 0.024 µM.
On the same count and under the same terms, then Ac-EH[dF]RW[Dab][Hyp][Hyp]RDK(biscarboxymethyl(3))K([AEEA-Palmitoyl(16-(5-tetrazolyl))])-NH2 (lactam 1-6), with 0.105 µM; and B6, with 0.025 µM.
B7 had a Ki of 0.014 µM.
Ac-[Dap]H[dF]RWDPPRDK(biscarboxymethyl(3))K([AEEA-Palmitoyl(16-(5-tetrazolyl))])-NH2 (lactam 1-6) showed a Ki of 0.00516 µM.
Molecule Ac-[Dap]H[dF]RWEPPRDK(biscarboxymethyl(3))K([AEEA-Palmitoyl(16-(5-tetrazolyl))])-NH2 (lactam 1-6) displayed a Ki of 0.0007 µM.
For the molecule B8, affinity was put at a Ki of 0.00387 µM.
The molecule B9 returned an inhibition constant (Ki) of 0.179 µM.
B10 gave a Ki of 0.038 µM.
Take Ac-[Dab]H[dF]RWDPPREK(biscarboxymethyl(3))SS-X5 (lactam 1-6): the affinity, expressed as Ki, was 0.0125 µM.
On to Ac-[Orn]H[dF]RWDPPREK(biscarboxymethyl)SS-X5 (lactam 1-6), for which the Ki worked out at 0.00093 µM.
As for Ac-EQ[dF]RW[Orn]PPRDK(biscarboxymethyl(3))K([AEEA-Palmitoyl(16-(5-tetrazolyl))])-NH2 (lactam 1-6), the Ki was found to be 0.058 µM.
